The values below come from PMC7607744 (2020).

No end group written: not given here.

This assay addresses T1, CD138pep (also: FITC-labeled, site not given here).
T1 chain: RKRLQVQLSIRT-NH2
The experiment in a line: flow cytometry binding to H929 cells. In general terms: In flow cytometry, cells or beads pass a laser one at a time.

A word on the Kd: it is a measure of binding affinity in units of concentration. Low values mean higher affinity, high ones lower affinity.

B1: CD138 (Syndecan-1) (protein)
chain: QIVATNLPPEDQDGSGDDSDNFSGSGAGALQDITLSQQTPSTWKDTQLLTAIPTSPEPTGLEATAASTSTLPAGEGPKEGEAVVLPEVEPGLTAREQEATPRPRETTQLPTTHLASTTTATTAQEPATSHPHRDMQPGHHETSTPAGPSQADLHTPHTEDGGPSATERAAEDGASSQLPAAEGSGEQDFTFETSGENTAVVAVEPDRRNQSPVDQGATGASQGLLDRKEVLG
Consider B1, for which the dissociation constant Kd is 3.1 µM.
